According to patent US20260234247A1 (published 2026):

How the values were obtained:
human LILRA2 [1] = biological target: T1, human LILRA2 (human, UniProt Q8N149 24-449); test: ELISA, OD450, antibody at 200 nM; + = 2-fold over ISO
T1 construct: bought protein coated for ELISA; also called hLILRA2
T1 sequence (Q8N149 24-449 limits assumed): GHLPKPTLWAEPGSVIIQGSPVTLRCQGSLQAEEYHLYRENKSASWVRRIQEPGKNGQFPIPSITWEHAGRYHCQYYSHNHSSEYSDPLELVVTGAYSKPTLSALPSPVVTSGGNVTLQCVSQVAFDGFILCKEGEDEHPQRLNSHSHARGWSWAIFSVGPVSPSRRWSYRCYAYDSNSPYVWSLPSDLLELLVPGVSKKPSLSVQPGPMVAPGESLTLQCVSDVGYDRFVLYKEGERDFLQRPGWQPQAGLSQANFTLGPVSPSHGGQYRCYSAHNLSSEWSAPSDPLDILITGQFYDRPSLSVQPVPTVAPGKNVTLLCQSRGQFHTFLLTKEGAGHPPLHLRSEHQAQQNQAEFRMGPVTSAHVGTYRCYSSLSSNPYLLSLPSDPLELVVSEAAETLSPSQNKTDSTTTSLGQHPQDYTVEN
Procedure: (§1) To further confirm binding affinity, selected clones were assayed in ELISA or FACS in a range of testing concentrations.

human LILRA1 [2] = biological target: T2, human LILRA1 (human, UniProt O75019 17-461, limits assumed); test: as above
T2 construct: bought protein coated for ELISA; also called hLILRA1
T2 sequence (O75019 17-461 limits assumed): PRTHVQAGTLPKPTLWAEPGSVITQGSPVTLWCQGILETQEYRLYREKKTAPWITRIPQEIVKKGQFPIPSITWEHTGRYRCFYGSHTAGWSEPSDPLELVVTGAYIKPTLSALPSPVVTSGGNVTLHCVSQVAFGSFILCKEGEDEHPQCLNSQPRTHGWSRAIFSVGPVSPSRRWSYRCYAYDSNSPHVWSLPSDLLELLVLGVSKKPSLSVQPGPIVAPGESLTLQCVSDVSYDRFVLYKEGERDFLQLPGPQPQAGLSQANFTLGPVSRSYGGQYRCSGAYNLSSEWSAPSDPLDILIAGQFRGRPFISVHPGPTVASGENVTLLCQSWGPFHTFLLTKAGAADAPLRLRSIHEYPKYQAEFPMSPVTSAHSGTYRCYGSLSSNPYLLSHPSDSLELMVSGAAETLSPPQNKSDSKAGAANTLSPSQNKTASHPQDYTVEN
Procedure: as §1

human LILRA3 = biological target: T3, human LILRA3 (human, UniProt Q8N6C8 24-439); test: as above
T3 construct: bought protein coated for ELISA; also called hLILRA3
Procedure: as §1

human LILRB3 = biological target: T4, human LILRB3 (human, UniProt O75022 24-443); test: as above
T4 construct: bought protein coated for ELISA; also called hLILRB3
Procedure: as §1

human LILRB5 = biological target: T5, human LILRB5 (human, UniProt O75023 24-458); test: as above
T5 construct: bought protein coated for ELISA; also called hLILRB5
Procedure: as §1

human LILRA2 [3] = biological target: T6, human LILRA2 (human, UniProt Q8N149 24-449); test: as above; remark: listed apart in the source
T6 construct: bought protein coated for ELISA; also called hLILRA2
T6 sequence (Q8N149 24-449 limits assumed): as the sequence (Q8N149 24-449 limits assumed) above
Procedure: as §1

human LILRA1 [4] = biological target: T7, human LILRA1 (human, UniProt O75019 17-461, limits assumed); test: ELISA, antibody at 200 nM, OD450; + = 2-fold over ISO
T7 construct: Bought protein; also called hLILRA1
T7 sequence (O75019 17-461 limits assumed): as the sequence (O75019 17-461 limits assumed) above
Procedure: as §1

human LILRB4 = biological target: T8, human LILRB4 (human, UniProt Q8NHJ6 22-259); test: as above
T8 construct: Bought protein; also called hLILRB4
Procedure: as §1

human LILRA1 [5] = biological target: T9, human LILRA1 (human, UniProt O75019 17-461, limits assumed); test: ELISA, OD450, antibody at 200 nM; + = 2-fold over ISO; remark: listed apart in the source
T9 construct: bought protein coated for ELISA; also called hLILRA1
T9 sequence (O75019 17-461 limits assumed): as above
Procedure: as §1

human LILRB1 Variant 2 = biological target: T10, human LILRB1 Variant 2 (human, UniProt Q8NHL6 24-458, limits assumed); test: ELISA (FIG. 12B)
T10 construct: protein bought from Kactusbio, LLC (Cat: LIL-HM2V1 and LIL-HM2V2 for Variant 2 and 3)

human LILRB1 Variant 3 = biological target: T11, human LILRB1 Variant 3 (human, UniProt Q8NHL6 24-458, limits assumed); test: ELISA (FIG. 12C)
T11 construct: protein bought from Kactusbio, LLC

human LILRB1 = biological target: T12, human LILRB1 (human, UniProt Q8NHL6 24-458, limits assumed); test: Octet off-rate ranking;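 further: antibody dissociation rate constants against cynomolgus LILRB2 plus human LILRB1, LILRB2, LILRA1 and LILRA2, measured on an Octet instrument to rank binding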
T12 construct: also called hLILRB1
Source text: (§2) Binding affinity of anti-LILRB1 and anti-LILRB2 antibodies against human LILRB1, LILRB2, LILRA1, LILRA2 and cynomolgus LILRB2 was ranked by measuring dissociation rate constant (Kdis) using the Octet system.

human LILRA1 [6] = biological target: T13, human LILRA1 (human, UniProt O75019 17-461, limits assumed); test: Octet off-rate ranking;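 further: antibody dissociation rate constants against cynomolgus LILRB2 plus human LILRB1, LILRB2, LILRA1 and LILRA2, measured on an Octet instrument to rank binding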
T13 construct: also called hLILRA1
T13 sequence (O75019 17-461 limits assumed): as above
Source text: as §2

Biotinylated LILRB1 [7] = biological target: T14, Biotinylated LILRB1 (UniProt Q8NHL6 24-458, limits assumed, biotinylated (sites not given)); test: epitope binning ELISA, coated 1 ug/ml; competitor 15G8 at 20 ug/ml
Biotinylated LILRB1 [8] = biological target: T14, Biotinylated LILRB1; test: epitope binning ELISA, coated 1 ug/ml; competitor LK-RB1-9 at 20 ug/ml
Procedure: (§3) Binding epitope of a subset of anti-LILRB1 and anti-LILRB2 antibodies was analyzed by epitope binning ELISA. Briefly, a panel of testing antibodies were coated onto ELISA plate. 50 ul/well Biotinylated LILRB1 or LILRB2 and 50 ul/well of competing antibodies were added to the coated plate and incubated at 37° C. for 1 hour. After Streptavidin-HRP (1:5000) incubation and TMB development, the plates were read at 450 nm using Molecular device spectra max plus384.

Biotinylated LILRB1 [9] = biological target: T14, Biotinylated LILRB1; test: epitope binning ELISA, coated 1 ug/ml; competitor LK-RB1-12 at 20 ug/ml
Procedure: as §3

Biotinylated LILRB1 [10] = biological target: T14, Biotinylated LILRB1; test: epitope binning ELISA, coated 1 ug/ml; competitor LK-RB1-16 at 20 ug/ml
Procedure: as §3

Biotinylated LILRB1 [11] = biological target: T14, Biotinylated LILRB1; test: epitope binning ELISA, coated 1 ug/ml; competitor LK-RB1-31 at 20 ug/ml
Procedure: as §3

Biotinylated LILRB1 [12] = biological target: T14, Biotinylated LILRB1; test: epitope binning ELISA, coated 1 ug/ml; competitor LK-RB1-33 at 20 ug/ml
Procedure: as §3

Biotinylated LILRB1 [13] = biological target: T14, Biotinylated LILRB1; test: epitope binning ELISA, coated 1 ug/ml; competitor LK-RB1-47 at 20 ug/ml
Procedure: as §3

Biotinylated LILRB1 [14] = biological target: T14, Biotinylated LILRB1; test: epitope binning ELISA, coated 1 ug/ml; competitor hz73D1.v1 at 20 ug/ml
Procedure: as §3

human LILRA4 = biological target: T15, human LILRA4 (human, UniProt P59901 24-446); test: ELISA, OD450, antibody at 200 nM; + = 2-fold over ISO
T15 construct: bought protein coated for ELISA; also called hLILRA4
T15 sequence (P59901 24-446 limits assumed): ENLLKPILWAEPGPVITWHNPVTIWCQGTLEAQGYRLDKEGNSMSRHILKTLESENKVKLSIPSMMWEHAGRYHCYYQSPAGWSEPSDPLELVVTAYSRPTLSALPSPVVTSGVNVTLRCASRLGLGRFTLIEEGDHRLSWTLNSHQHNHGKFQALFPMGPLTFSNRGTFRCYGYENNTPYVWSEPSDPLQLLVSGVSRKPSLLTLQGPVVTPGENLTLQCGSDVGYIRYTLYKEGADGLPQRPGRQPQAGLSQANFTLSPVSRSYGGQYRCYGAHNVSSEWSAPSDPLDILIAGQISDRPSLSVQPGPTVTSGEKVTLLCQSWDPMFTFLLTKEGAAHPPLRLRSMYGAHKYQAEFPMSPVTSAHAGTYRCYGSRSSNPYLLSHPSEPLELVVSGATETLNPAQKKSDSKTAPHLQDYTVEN
Procedure: as §1

T14 sequence (Q8NHL6 24-458 limits assumed): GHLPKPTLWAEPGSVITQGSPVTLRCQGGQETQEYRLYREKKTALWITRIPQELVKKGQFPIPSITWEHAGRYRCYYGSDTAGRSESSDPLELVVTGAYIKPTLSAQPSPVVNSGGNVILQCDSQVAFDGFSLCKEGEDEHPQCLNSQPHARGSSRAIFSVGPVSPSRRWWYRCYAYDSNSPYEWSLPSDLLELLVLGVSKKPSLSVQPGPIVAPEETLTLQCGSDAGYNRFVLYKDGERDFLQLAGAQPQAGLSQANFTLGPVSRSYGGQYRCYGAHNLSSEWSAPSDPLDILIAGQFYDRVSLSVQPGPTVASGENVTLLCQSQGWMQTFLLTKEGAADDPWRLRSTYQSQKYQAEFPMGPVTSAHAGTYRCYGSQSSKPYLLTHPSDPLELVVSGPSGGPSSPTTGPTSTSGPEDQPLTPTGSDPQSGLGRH
T11 sequence (Q8NHL6 other isoform, or with tags, fused parts or gaps mutant limits assumed): as the sequence (Q8NHL6 24-458 limits assumed) above, with L45P, I119T, S132I counted along it
T10 sequence (Q8NHL6 other isoform, or with tags, fused parts or gaps mutant limits assumed): as the sequence (Q8NHL6 24-458 limits assumed) above, with L45P, A70T, I119T, S132I counted along it
T5 sequence (O75023 24-458 limits assumed): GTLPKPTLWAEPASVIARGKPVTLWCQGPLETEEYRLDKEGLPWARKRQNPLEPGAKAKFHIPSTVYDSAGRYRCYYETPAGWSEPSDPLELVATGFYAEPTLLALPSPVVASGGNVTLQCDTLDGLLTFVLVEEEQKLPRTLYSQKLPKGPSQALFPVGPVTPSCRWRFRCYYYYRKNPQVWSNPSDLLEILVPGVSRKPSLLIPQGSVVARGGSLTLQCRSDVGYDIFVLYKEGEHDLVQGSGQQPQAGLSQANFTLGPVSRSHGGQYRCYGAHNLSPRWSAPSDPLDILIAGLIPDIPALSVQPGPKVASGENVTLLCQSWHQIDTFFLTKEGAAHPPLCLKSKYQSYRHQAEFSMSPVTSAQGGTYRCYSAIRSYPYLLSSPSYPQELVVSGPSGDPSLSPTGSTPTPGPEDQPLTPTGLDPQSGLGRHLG
T3 sequence (Q8N6C8 24-439 limits assumed): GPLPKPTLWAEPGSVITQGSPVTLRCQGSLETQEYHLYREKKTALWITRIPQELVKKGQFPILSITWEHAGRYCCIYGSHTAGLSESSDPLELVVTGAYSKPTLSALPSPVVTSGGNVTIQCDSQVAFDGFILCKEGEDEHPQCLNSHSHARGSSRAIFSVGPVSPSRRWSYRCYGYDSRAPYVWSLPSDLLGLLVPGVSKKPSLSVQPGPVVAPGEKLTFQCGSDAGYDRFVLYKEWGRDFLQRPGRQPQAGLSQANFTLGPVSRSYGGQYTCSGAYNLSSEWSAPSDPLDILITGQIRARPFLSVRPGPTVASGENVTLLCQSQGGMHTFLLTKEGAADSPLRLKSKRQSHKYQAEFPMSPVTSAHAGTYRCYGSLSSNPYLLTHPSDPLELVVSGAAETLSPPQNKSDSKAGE
T12 sequence (Q8NHL6 24-458 limits assumed): as the sequence (Q8NHL6 24-458 limits assumed) above

B1: LK-RB1-13 (antibody, human IgG4 S228P, kappa, V domains shown)
VH: QVTLKESGPGIVKPSQTLSLTCSFSGFSLSISGTGIGWIRQPSGKGLEWLAHIWWDDDKYYNPSLKSQVTISKDTSTKQVFLNITSVDTADTATYYCTRTELGRGDFWGQGTSVTVSS
VL: DILLTQSPAILSVSPGDRVSFSCRASQSTGTNIHWYQRRTNGSPRLLIKYGSESISGIPSRFSGSGTGTDFTLTINSVESEDIADYYCQQSYSWPYTFGGGTKLEIKR
notes: anti-LILRB1 antibody
- binding result (human LILRA2 [1]): binds

B2: LK-RB1-15 (antibody, human IgG4 S228P, kappa, V domains shown)
VH: QVTLKESGPGIVKPSQTLSLTCSFSGFSLSISGTGIGWIRQPSGKGLEWLAHIWWDDDKYYNPSLKSQVTISKDTSTKQVFLNITSVDTADTATYYCTRTELGRGDFWGQGTSVTVSS
VL: DILLTQSPAILSVSPGDRVSFSCRASQSIGTNIHWYQRRTNGSPRLLIKYGSESISGIPSRFSGSGTGTDFTLTINSVESEDIADYYCQQSYSWPYTFGGGTKLEIKR
notes: anti-LILRB1 antibody
- binding result (human LILRA1 [2]): binds
- binding result (human LILRA3): binds

B3: LK-RB1-35 (antibody, human IgG4 S228P, kappa, V domains shown)
VH: DVQLQESGPGLEKPSQSLSLTCSVTGYSITRGYQWNWIRQFPGNKLEWMGYISYDGSNNYNPSLKNRISITRDASKNQFFLKLNSVTTEDTATYYCARRSYNSIDYWGQGTTLTVSS
VL: DIVLTQSPATLSVTPGDSVSLSCRASQSISSNLHWYQQKSHESPRLLIKYASQSISGIPSRFSGSGSGTDFTLSINSVETEDFGMYFCQQSNSWPLTFGAGTKLELKR
notes: anti-LILRB1 clone from mouse hybridoma
- binding result (human LILRB3): binds
- binding result (human LILRB5): binds

B4: LK-RB1-36 (antibody, human IgG4 S228P, kappa, V domains shown)
VH: DVQLQESGPGLEKPSQSLSLTCSVTGYSITRGYQWNWIRQFPGNKLEWMGYISYDGSNNYNPSLKNRISIIRDTSKNQFFLKLNSVTTEDTATYYCARRSYNSIDYWGQGTTLTVSS
VL: DIVLTQSPATLSVTPGDSVSLSCRASQSISNNLHWYQQKSHESPRLLIKYASQSISGIPSRFSGSGSGTDFTLSINSVETEDFGMYFCQQSNSWPLTFGAGTKLELKR
notes: as for B3
- binding result (human LILRB3): binds
- binding result (human LILRB5): binds

B5: LK-RB1-33 (antibody, human IgG4 S228P, kappa, V domains shown)
VH: QIQLVQSGPELKKPGDTVKISCKASGYTFTSYGMNWVKQAPGEGLKWMGWINTYSGVPTYGDDFKGRFAFSLETSASTAYLQINNLENEDTATYFCARRGRDSVVGHFDVWGTGTTVTVSS
VL: DIVMTQSHKFMSTSVGDRVSITCKASQDVNTAVAWYQQKPGQSPKLLIYWASTRHTGVPDRFTGSGSGTDFTLTISSVQAEDLALYYCQQHYTIPFTFGSGTRLEIKR
notes: as for B3
- binding result (human LILRA2 [3]): binds

B6: LK-RB2-12 (antibody, human IgG4 S228P, kappa, V domains shown)
VH: QIQLVQSGPELKKPGETVKISCKASGYTFTTYGMSWVKQTPGKGLKWMGWINIYSGVPTYADDFKGRFVFSLEISASTAHLQINNLKNEDTATYFCARRKDYSGHCFDYWGQGTTLTVSS
VL: DIVLTQSPASLAVSPGQRATISCRASESVDTYGISFMHWYQQKPGQPPKLLIYRASNLESGIPARFSGSGSRTDFTLTINPVETDDVAIYYCQQSKKDPYTFGGGTKLEIKR
- binding result (human LILRA1 [4]): binds
- binding result (human LILRB4): binds

B7: LK-RB2-15 (antibody, human IgG4 S228P, kappa, V domains shown)
VH: QIQLVQSGPELKKPGETVKISCKASGYTFTTYGMSWVKQAPGKGLKWMGWINVYSGVPTYADDFKGRFAFSLEISASTAYLQINNLKDEDTATYFCARRKDYSGHCFDYWGQGTTLTVSS
VL: DIVLTQSPASLAVSLGQRATFSCRASESVDTYGISFMHWYQQKPGQPPKLLIYRASNLESGIPARFSGSGSRTDFTLTINPVETDDVATYYCQQSKKEPYTFGGGTKLEIKR
- binding result (human LILRA1 [4]): binds
- binding result (human LILRB4): binds

B8: LK-RB1-59 (antibody, human IgG4 S228P, kappa, V domains shown)
VH: QIQLVQSGPELKKPGETVKISCKASGYTFTTYGMSWVKQAPGKGLKWMGWINTYSGVPTYADDFKGRFAFSLETSASTAYLQINNLKNEDTATYFCARRRIYYGNKGYAMDYWGQGTSVTVSS
VL: DIQMTQSPASLSVSVGETVTITCRASENIYSNLVWYQQKQGKSPQLLVYTATNLADGVPSRFSGSGSGTQFSLKINSLQSEDFGSYYCQHFWGTPWTFGGGTKLEIKR
notes: as for B3
- binding result (human LILRA1 [5]): binds
- binding result (human LILRA2 [3]): binds

B9: LK-RB1-47 (antibody, human IgG4 S228P, kappa, V domains shown)
VH: QIQLVQSGPELKKPGETVKISCKASGYTFTTYGMSWVKQAPGKGLKWMGWINTYSGVPTYTDDFKGRFAFSVETSASTAYLQINNLKNEDTATYFCARRERDFYGNIFFPYWGQGSLVTVSA
VL: DIQMTQTTSSLSASLGDRVTISCRASQDISNYLNWYQQKPDGTVKLLIYYTSRIHSGVPSRFSGSGSGTDFSLTISNLDQEDIATYFCQQGHTLPWTFGGGTKVEIKR
notes: as for B3
- binding result (human LILRA1 [5]): binds
- binding result (human LILRA2 [3]): binds

B10: LK-RB1-9.h1 (antibody, human IgG4, kappa, V domains shown)
VH: QVQLVQSGSELKKPGASVKVSCKASGYTFTTYGMSWVRQAPGQGLEWMGWINTYSGVPTYADDFKGRFVFSLDTSVSTAYLQISSLKAEDTAVYYCARRRRTYHGYLSFDYWGQGTTVTVSS
VL: DIQMTQSPSSLSASVGDRVTITCETSENIYGALNWYQQKPGKAPKLLIYGATNLAEGVPSRFSGSGSGTDFTFTISSLQPEDIATYYCQNVLNTPWTFGGGTKLEIKR
notes: humanized LK-RB1-9
- binding result (human LILRB1 Variant 2): binds
- binding result (human LILRB1 Variant 3): binds

B11: hz73D1.v1 (antibody, human IgG4 S228P, kappa, V domains shown)
VH: QVQLVQSGAEVKKPGASVKVSCKASGYTFTDYYINWVRQAPGQGLEWMGNVNPNDGGTTYNQKFKGRVTMTTDTSTSTAYMELRSLRSDDTAVYYCARREIYFYGTIYYYAMDYWGQGTLVTVSS
VL: DIQLTQSPSFLSASVGDRVTITCRASESVDYYGNSFMYWYQQKPGKAPKLLIYFASNLESGVPSRFSGSGSGTEFTLTISSLQPEDFATYYCQQNNEDPWTFGGGTKVEIKR
- koff (human LILRB1): 5.18e-05 s⁻¹
- koff (human LILRA1 [6]): 7.52e-06 s⁻¹
- Inhibition % (Biotinylated LILRB1 [7]): -3.83%
- Inhibition % (Biotinylated LILRB1 [8]): 57.4%
- Inhibition % (Biotinylated LILRB1 [9]): 82.8%
- Inhibition % (Biotinylated LILRB1 [10]): 61.2%
- Inhibition % (Biotinylated LILRB1 [11]): 41.6%
- Inhibition % (Biotinylated LILRB1 [12]): 23.5%
- Inhibition % (Biotinylated LILRB1 [13]): 46.9%
- Inhibition % (Biotinylated LILRB1 [14]): 31.4%

B12: LK-RB1-11 (antibody, human IgG4 S228P, kappa, V domains shown)
VH: QVTLKESGPGILQPSQTLSLTCSFSGFSLKTSGMSVGWIRQPSGKGLEWLAHIWWNDDKYYNPVLKGRLTISKDTSNNLVFLKIASVVSTDTATYYCVRYGNSHGYWYFDVWGTGTTVTVSS
VL: NIVLTQSPASLAVSLGQRATISCRASESVDSYGNNFIHWYQQKPGQPPKVLIYYASNLEAGVPARFSGSGSRTDFTLTIDPVEAEDAATYYCQQNNEDPYTFGGGTKLEIER
notes: anti-LILRB1 antibody
- binding result (human LILRA1 [2]): binds
- binding result (human LILRA3): binds

B13: LK-RB1-16.h3 (antibody, human IgG4, kappa, V domains shown)
VH: QVQLQESGPGLVKPSETLSLTCTVSGFSLISNAISWIRQPPGKGLEWLGVIWGDGNTIYHSALRSRLTISKDTSKNQVFLKLSSVTAADTAVYYCAKANWDGYYFDYWGQGTTVTVSS
VL: DIQMTQSPSTLSASVGDRVTITCHASQSVDFWLNWYQQKPGKAPKLLISKASNLHTGVPSRFSGSGSGTEFTLTISSLQPDDFATYYCQQGQSYPLTFGQGTKLEIKR
notes: humanized LK-RB1-16
- binding result (human LILRB1 Variant 2): binds
- binding result (human LILRB1 Variant 3): binds

B14: LK-RB1-2 (antibody, human IgG4 S228P, kappa, V domains shown)
VH: QIQLVQSGPELKKPGETVKISCKASGYTFTTYGVSWVKQAPGKGLKWMGWINTYSGVSTYSDDFKGRFAFSLETSASTAYLQIINLKNEDAATYFCSRRRRTYDGYLSFDYWGQGTTLTVSS
VL: DIQMTQSPGSLSASVGETVTITCGASENIYGALNWFQRKPGKSPQLLIYGATNLADGMSSRFSGSGSGRQYSLQISSLRPDDVATYYCQNVLTTPWTFGGGTKVEIKR
notes: anti-LILRB1 antibody
- binding result (human LILRA4): binds
